Results as given in the DeepSol protein solubility set.

Assay: soluble on expression in E. coli; label from the status in PepcDB or PDB records
In the case of “MGSDKIHHHHHHMCRWLAYTGNPLQLETVLFNARHSLIDQSLHSRLGYTTTNGDGFGIGWYGEPTDIPFRYRCIQPAWSDRNLREAARAIRAPLFVAHVRSATDTPSQETNCHPFRHGRWLFAHNGLIRNYPAVRRDLMVMIDPDLFPSIEGSTDSEVMFFLALTFGLELAPVTALERMVAFVEETGRKHGVDEPLNMTVCVTDGEQIVAVRYSSEGQSRSLFHSTSFHHLHELYPDDPRIAAAGENAFLVLSEPLADLPGWWEEIPESTVVVARGGQIEQYPFRPQSA”, the “soluble on expression in E. coli” value was “not soluble”.
With “MSLEVLATFLYKFNGWSFLGRVLQNLSKNFDFTDREKVDTIVDIMSMLTKVVGEVSVEDSKHALTSMSAYTDDSDVLEVIFRLFEQSLHSRNIRMIESILNLLTQLVPIFSYRIWPAFSKSALLFDGTREGFATVIFGSIEMVNGDFRLTIALAKLTDALVYDCLTLDNAVPSKVKEAVLKKLVSHLIAVMESYAQEGHHHHHH” the “soluble on expression in E. coli” value was “soluble”.
For “MTDRYSFSLTTFSPSGKLGQIDYALTAVKQGVTSLGIKATNGVVIATEKKSSSPLAMSETLSKVSLLTPDIGAVYSGMGPDYRVLVDKSRKVAHTSYKRIYGEYPPTKLLVSEVAKIMQEATQSGGVRPFGVSLLIAGHDEFNGFSLYQVDPSGSYFPWKATAIGKGSVAAKTFLEKRWNDELELEDAIHIALLTLKESVEGEFNGDTIELAIIGDENPDLLGYTGIPTDKGPRFRKLTSQEINDRLEAL”, the “soluble on expression in E. coli” value was “soluble”.
In the case of “MNELLAEMAAVSSRRKQSKPRRMSGEGDAMMSPIDLSTKSFDENNCEKGAGGALPLEDRSNILPHFSVPFANPQQFLSLCAQLGNSSSRNVSSTASTTSSCPIQSCSQSFSSPAALTWHVLDAHEDEQEIFSCDVCTTTFSNGQDIREHKCQKTLASRSTSVPPSTIPSSVCFLSTPTTPCLQFSINESIGTSEIREEDEEEDMDVEDGEHVANQLFGHLLQKSDDKSKMASLFNHAFPPFAAFPNMPPPFLMRQPFDPRADVFAAGRHDNDDDWEALMEISTSDEAEKIRALVGDKAVPTTDPNQCILCRRVLSCKSALQMHYRTHTGERPFKCKICQRAFTTKGNLKTHMGVHRSKHSFRGLPISLPPQLAAMHQHQHQIAPPQRIHIHNPPTSAASAAAAVAQIQASQQCPICQQRFLNAGELAVHITEHRNSLTQPPRVMPTPTTTRVQTFPFVPFFTTPPSLNATDMSTQFNLANILSAQLKNDSSPNTDTSSVEEKITRDDPPKMASLSPSNSSDSSSSVRQDILESSEFEEKLKKLEEPPILEQQVSTTPNPKNENPLLAMQKMWAETEPPPPRQMPVLSKHQCGVCFKHFSSSSALQIHMRTHTGDKPFKCDMCGRAFTTRGNLKVHMGTHSWQQSPSRRGRRIFDVASSVTEKPMLQSPILPTSGAPGASPLAMLGPNGLSGLEMMMMLWRTVCSVCQKVCQSPNELEQHLKEHLNNGSSAAPTPLASAATPPPS”, the “soluble on expression in E. coli” value was “not soluble”.
In the case of “MTGITIFYGDNIIRYVVNTKKGLRPYFKQLPDNYQAKFELNLMSKFSNFIINKPFSAINTAARHIFSRYLLENKHLFYQYFKISNTGIDHLEQLINVNFFSSDRTSFCECNRFP”, the “soluble on expression in E. coli” value was “not soluble”.
In the case of “MGSDKIHHHHHHMTDAVEILGAERSGRWVVTCDHACNRVPDDVAGGDLGLPPADMARHIAYDVGALGVARAMGEALNGPVVTSRFSRLVIDPNRGEDDPTLLMQIYDGSIIPANRGASQAEIDRRLDRFHRPYHRALAHVIAQRDDPIVVAIHSFTPQLIGRAPRPWHVSVLYAGDTRLPYPLLARLRDEDDLCVGDNEPYSGHLPGDALDRHGVQPGRLHVLIEVRNDLIETAEDQARWGVRLAQMLEAAATSADL”, the “soluble on expression in E. coli” value was “not soluble”.
For “MSTEKEKMIAGELYRSADETLSRDRLRARQLIHRYNHSLAEEHTLRQQILADLFGQVTEAYIEPTFRCDYGYNIFLGNNFFANFDCVMLDVCPIRIGDNCMLAPGVHIYTATHPIDPVARNSGAELGKPVTIGNNVWIGGRAVINPGVTIGDNVVVASGAVVTKDVPDNVVVGGNPARIIKKL”, the “soluble on expression in E. coli” value was “not soluble”.
With “MGSDKIHHHHHHMCRWLAYSGRSVPLEAVLFQPEHSLIDQSLNARLGHTTTNGDGFGVGWYGRHSEVPFRYRCLHPAWSDTNLRETARAVRAPLFVAHVRAATGTPTQETNCHPFRFGRWLFVHNGLIREFPLLRRDLMMAVSPQLFRWIEGSTDSEIMFFLALTFGLERDPRAALEQMVGLIEEVGHRYDVEHPINMTVCVTDGQQIVAVRYSSEADSRSLFHSTSFRQLRELYPDDPRIIAAGDDAFLVLSEPLIDVQGVWQEIPEATILVGRAGVIDYSRFTPRMPELSS” the “soluble on expression in E. coli” value was “not soluble”.
In the case of “SLSGNGFDAILALSHRTSHTTYGNPFFSDVIQSISAVSEQNNFDLILQTAKTPEEELEKCAKKIQEKMIRGIIILSSTMDETLLFELDQYNIPIVVIGKVGNDYTNIYSVDTDNFQDSYDLVETLIKNGHRHIGCLHAPTEVYVSNDRLNGYRQCLFDHHLDIRNEWIIDGGFRLEDSMAAMNDLMKLRERPTAIFSTDALKSLSIYKVAEQSGKQIPDDLSIAGFSDPLLSSLFSPQLTRIDIPTNQLGIKATELLFQLIHHQYPEEKRIILSTEITLTDSI”, the “soluble on expression in E. coli” value was “soluble”.
With “EVVVVGYSTQKKESLTGALQTVKSDKLKDITTPSVENMLNGKVPGVYVAPGSGQPGSGGAVVIRGQATLSGTTAPLWVIDGVIVGSNAGALNPSDIETMTILKDAASTAIYGSQGANGVILVTTKNGK” the “soluble on expression in E. coli” value was “not soluble”.
For “MGSDKIHHHHHHMPECSKAWAVREEPELLTDRRHTDDGGEFVSQPRIIEPAIRTLIDTPLRVGESPTWDERTGDLWFVDILAPAIFCLSPSGKLQRFDMPAQIGCLGLCQSNLIVAALKTGVHLLNPQNGELELLCDPDEGRADSRLNDGKVGPDGHFWVGTRDEADVPTGNARLYRVSSSGHVERFIDGDMLTSNGLAWSPDETRMYHSDSSGLLLQVFDFDVQTGRLGPAKRLHDFQPDEGRPDGAATDSEGCYWSAGVQAGRLNRFTPDGELFEIYKMPFKGPTMPCFGGPELKTLYVTSLVTDTNGVATSGTLVAFDAPVAGAPIHKFPL”, the “soluble on expression in E. coli” value was “not soluble”.
With “MERVSITERPDWRDKATEYGFNFHTMYGEPYWCEDAYYKLTLAQVEKLEDVTAELHQMCLKVVERVIASDELMTKFRIPKHTWGFVRQSWQTQQPSLYSRLDLAWDGIGEPKLLENNADTPTSLYEAAFFQWIWLEDQINAGNLPEGSDQFNSLQEKLIERFAELREQYGFQLLHLTCCRDTVEDRGTIQYLQDCAAEAEIATEFLYIDDIGLGEKGQFTDLQDQVIANLFKLYPWEFMLREMFSTKLEDAGVRWLEPAWKSIISNKALLPLLWEMFPDHPNLLPAYFAEDEHPPMDKYVVKPIFSREGANVSIIENGKTIESVEGPYGEEGMIVQQFYPLPKFGDSYTLIGSWLINDQPAGIGIREDRALITQDLSRFYPHIFVEG” the “soluble on expression in E. coli” value was “not soluble”.
For “MTVQQSGRRERKKAATRQKIADTALRLFLERGYDAVGIRDVAAEADVAVTTLFSHFASKEALVFEQDEDFEHRLTRAVTDRAPHEPLIPALRREILALVRHCTADSAAPIWRMIDASPALRKYDESVRLRHAEALATAIAADPTRTRSETAARTLARFVIDAYSLSREAPDPEAALDEIFPMIEAAWAAARPPHPT”, the “soluble on expression in E. coli” value was “not soluble”.
With “GDYIYADSNNNGVYGDDNDYTFQKTSNKPKYNFGFQASAAWKGFDLSMVWAGAAGFSIYWGATTGYNAASTEWGSTIAQRVAENHYFYNPENPDDPRTNINAKYPRMAYIDGYVQNRHGNTTLWLYKGDYIKLKNLSLGYTLPKNWVSKIAMQNARVYVSAENLLTITGFEGQDPESATGMGYSPFRTIAIGANITF” the “soluble on expression in E. coli” value was “not soluble”.
In the case of “MLWSGCRRFGARLGCLPGGLRVLVQTGHRSLTSCIDPSMGLNEEQKEFQKVAFDFAAREMAPNMAEWDQKELFPVDVMRKAAQLGFGGVYIQTDVGGSGLSRLDTSVIFEALATGCTSTTAYISIHNMCAWMIDSFGNEEQRHKFCPPLCTMEKFASYCLTEPGSGSDAASLLTSAKKQGDHYILNGSKAFISGAGESDIYVVMCRTGGPGPKGISCIVVEKGTPGLSFGKKEKKVGWNSQPTRAVIFEDCAVPVANRIGSEGQGFLIAVRGLNGGRINIASCSLGAAHASVILTRDHLNVRKQFGEPLASNQYLQFTLADMATRLVAARLMVRNAAVALQEERKDAVALCSMAKLFATDECFAICNQALQMHGGYGYLKDYAVQQYVRDSRVHQILEGSNEVMRILISRSLLQE”, the “soluble on expression in E. coli” value was “not soluble”.
With “MNIEEAKKLIDKQSIGKGGVGDIPVVKTHIVKVLLDQIDQPQPEVPRFVADWYEKHKDSLECDLYLYHMSIYDEEVEKDDFYYWMQTSKNPVYTLINMHQFGYTIQKEKLYTVEIPNPNERQLSFVLMRQLSGNVSIKVMHRDNLDLLKTDNDLQLTESEIRKDFDWAWQFREEVVE” the “soluble on expression in E. coli” value was “not soluble”.
For “MSIEWYAVHTLVGQEEKAKANLEKRIKAFGLQDKIFQVLIPTEEVVELREGGKKEVVRKKLFPGYLFIQMDLGDEEEPNEAWEVVRGTPGITGFVGAGMRPVPLSPDEVRHILEVSGLLGKKEAPKAQVAFREGDQVRVVSGPFADFTGTVTEINPERGKVKVMVTIFGRETPVELDFSQVVKA”, the “soluble on expression in E. coli” value was “soluble”.
With “MAEGNTLISVDYEIFGKVQGVFFRKHTQAEGKKLGLVGWVQNTDRGTVQGQLQGPISKVRHMQEWLETRGSPKSHIDKANFNNEKVILKLDYSDFQIVG” the “soluble on expression in E. coli” value was “soluble”.
With “MELNMLYLFTASNDSAIKNLEATIEKIYPISTCLADLDADTVTKLKDNELHENVCMWGATPGSSNVDRWEKLKEGDRILAYSKGEFKFFGTIFAKTHNPDVARKI” the “soluble on expression in E. coli” value was “not soluble”.
In the case of “MAHHHHHHMKTCKTGIQKVRDVSEATVLVLDWFERRNKPATPQSLADALGSRVAKSLLQKILEQLHAEEKLHVKDMKKIRFYYRRVLPLSDADGATTTKQHSEPEDDPAATTGERGNAVNVPEVCGGAETCAESPADAHAALLHAVAISAVQLSERSLRLTRWRGWPSSTERADKYADLAREVCELRNSLERLQSRHAGESAEAHGGGSWTSRVRRAVCRYRRARRHWVQRKDWAMCLLEATAGDAHTPLQAAALLGCTTDAEAGVSFEDTAVALPAPLMRELNLSQR”, the “soluble on expression in E. coli” value was “not soluble”.
In the case of “MSLSFNADEVRFLIDNLPDIDAATGDLALTKKTMISDVAALRARFGEHGRAVAELAGARRSVAGKLPVDWLMCHDSAQQATPMQVSGVRARRLVTALGEGTTAVDVTCSIGTEGHAVGQVGMGYIGSDLDQARLLMARYNLGGGVDKHPPHLLRADALAPAVTGADVIIADPARRAGGRRITDPAQLLPPLPDLLTAWEGHAMAVKCAPGLDFSGWTGLVSLVSVDGGVKEACLYTPDLADGETREAVILRGDRMDRITDALDDAPGEQLAREPGEFIIDPDGAVVRAGLVRHYAVREGLWMLDERIAYLTGDRIPAGTSGFRFIEQVPLKKLKGALTAHGAGSVEILVRGVDVDPDQLRKKLGLKGDRAMSVVITRIGSAGVALVCGAREWNGEGHHHHHH”, the “soluble on expression in E. coli” value was “soluble”.
With “MAHHHHHHMGTLEAQTQGPGSMENKEKIYEGKAKIIFATLNPLEVIQHFKDEITAFNNKKAAIIHEKGILNNYISSFLMKKLIDKGIKTHFISLLNQREQLVKKITIIPIEVVIRNLAAGNFSKRFQIADGTPFKSPIIEFYYKNDELSDPMVSEGHILSFQWLTNQELEKIKILSLKINNILSELFFNVGIKLVDFKLEFGKLHNDEQSDLFLADEISPDTCRLWDISTNKRLDKDRYRLNLGNVIEGYREVAHKLNAIPNL” the “soluble on expression in E. coli” value was “soluble”.
